The record followed here is US20240117030A1.

The target in assay [1] is recombinant human IL-33 (R&D Systems 3625-IL), reduced with DTT (human) (UniProt O95760). The experiment in a line: cell-based or functional assay.
Assay [2] concerns the target T1, biotinylated human IL-33 wild-type (WT), reduced with 3 mM DTT (human) (UniProt O95760).
T1 sequence (biotinylated (site not stated), looked up): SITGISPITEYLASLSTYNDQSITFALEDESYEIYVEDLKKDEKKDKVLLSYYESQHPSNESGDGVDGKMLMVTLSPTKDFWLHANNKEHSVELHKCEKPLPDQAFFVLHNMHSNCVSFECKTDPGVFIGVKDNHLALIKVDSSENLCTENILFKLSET
The assay is described as follows: KinExA solution affinity, fixed antigen format, global fit.

Assay [3] deals with recombinant human IL-33 (R&D Systems 3625-IL), reduced with DTT (human) (UniProt O95760). The assay is described as follows: cell-based or functional assay. This is another data set of the same source.
Assay [4] addresses recombinant human IL-33 (R&D Systems 3625-IL) (human) (UniProt O95760). The assay is described as follows: cell-based or functional assay.
Assay [5] deals with recombinant human IL-13 R110Q (human), P35225. The assay is described as follows: cell-based or functional assay.
recombinant human IL-13 R110Q (human), P35225, sequence (P35225 35-146, stated change not applied): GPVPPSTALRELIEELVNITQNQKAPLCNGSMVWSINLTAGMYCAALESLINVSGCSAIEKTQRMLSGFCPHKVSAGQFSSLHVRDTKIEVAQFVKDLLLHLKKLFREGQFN

Read-outs that look alike come from different tables or passages of the source.

B1: IL33-0352 (Clinical Benchmark) (antibody, INN chains, looked up, V domains shown)
VH: EVQLVESGGNLEQPGGSLRLSCTASGFTFSRSAMNWVRRAPGKGLEWVSGISGSGGRTYYADSVKGRFTISRDNSKNTLYLQMNSLSAEDTAAYYCAKDSYTTSWYGGMDVWGHGTTVTVSS
VL: DIQMTQSPSSVSASVGDRVTITCRASQGIFSWLAWYQQKPGKAPKLLIYAASSLQSGVPSRFSGSGSGTDFTLTISSLQPEDFAIYYCQQANSVPITFGQGTRLEIK
modifications: IgG1 effector-null
As usually defined, the Kd is the equilibrium constant for the complex coming apart. A low value points to tighter binding. On to B1, for which the IC50 [nM] versus reduced human IL-33 (R&D), IC50 (AVE) in assay [1] amounted to 0.011 nM; in assay [3], 0.018 nM. This molecule also displayed a Kd in assay [2] of 0.66 pM.

B2: IL33-265 (antibody, from a related filing, V domains shown)
VH: B1 VH
VL: DIQMTQSPSSVSASVGDRVTITCRASQGIFSWLAWYQQKPGKAPKLLIYAASSLQSGVPSRFSGSGSGTDFTLTISSLQPEDFAIYYCQQANSVPITFGQGTRLEIKR
As to B2, the IC50 (pM) HEK-Blue IL-33 SEAP (mean) in assay [4] came out at 15.9 pM.

B3: IL13-0001 (antibody, human IgG1, kappa)
heavy: EVQLVESGGGLVQPGGSLRLSCAASGFTFSSYAMSWVRQAPGKGLEWVASISSGDTTYYPDSVKGRFTISRDNAKNSLYLQMNSLRAEDTAVYYCARNEGYYFGLTLWGQGTLVTVSSASTKGPSVFPLAPSSKSTSGGTAALGCLVKDYFPEPVTVSWNSGALTSGVHTFPAVLQSSGLYSLSSVVTVPSSSLGTQTYICNVNHKPSNTKVDKKVEPKSCDKTHTCPPCPAPEAAGAPSVFLFPPKPKDTLMISRTPEVTCVVVDVSHEDPEVKFNWYVDGVEVHNAKTKPREEQYNSTYRVVSVLTVLHQDWLNGKEYKCKVSNKALPAPIEKTISKAKGQPREPQVYTLPPSREEMTKNQVSLTCLVKGFYPSDIAVEWESNGQPENNYKTTPPVLDSDGSFFLYSKLTVDKSRWQQGNVFSCSVMHEALHNHYTQKSLSLSPGK
light: DIQMTQSPSSLSASVGDRVTITCKASESVDHFGWSLVHWYQQKPGKAPKLLIYRASNLESGVPSRFSGSGSGTDFTLTISSLQPEDFATYYCQQSNEDPWTFGGGTKVEIKRTVAAPSVFIFPPSDEQLKSGTASVVCLLNNFYPREAKVQWKVDNALQSGNSQESVTEQDSKDSTYSLSSTLTLSKADYEKHKVYACEVTHQGLSSPVTKSFNRGEC
On to B3, for which, in assay [5], the IC50 (median), Monocyte CD23 expression is 10.1 pM and the IC50 (median), STAT6 phosphorylation in HT-29 cells turned out to be 104 pM.

B4: IL33-310 (antibody, from a related filing, V domains shown)
VH: EVQLVESGGGLVQPGGSLRLSCAASGFTFSSFSMSWVRQAPGKGLEWVATISGGKTFTDYVDSVKGRFTISRDDSKNTLYLQMNSLRAEDTAVYYCTRANYGNWFFEVWGQGTLVTVSS
VL: EIVLTQSPATLSLSPGERATLSCRASESVAKYGLSLLNWFQQKPGQPPRLLIFAASNRGSGIPARFSGSGSGTDFTLTISSLEPEDFAVYYCQQSKEVPFTFGQGTKVEIKR
On to B4, for which the IC50 (pM) HEK-Blue IL-33 SEAP (mean) in assay [4] came out at 56.4 pM.
